Substrate in the data set: Nc1ncnc2c1ncn2[C@@H]1O[C@H](COP(=O)(O)OP(=O)(O)OP(=O)(O)O)[C@@H](O)[C@H]1O
Nature of the data set: Inhibition constant of the ATP derivative / Km for ATP, p42^mapk assay. The following applies: other: p42^mapk; pH 7.4. Format: biochemical. The text has this:
[γ-^32 P] ATP was synthesized according to the procedure set forth in Johnson et al., Advances in Cyclic Nucleotide Research, 10:135-167 (1979). The catalytic subunit of cyclic-AMP-dependent protein kinase was purchased from Promega. p60^c-arc was obtained from the Department of Microbiology, University of Virginia. Recombinant p42^mapk was purified as described in Haystead et al., (1992) FEBS Lett., 306:17-22. STE7 antibody was obtained from the University of Vancouver, Canada.
The 42-kDa MAP kinase (p42^mapk) and MAPKK were assayed as described previously (Haystead et al. (1992) FEBS. Lett., 306:17-22). The cyclic-A kinase assays (30 μl) included 1 μg cyclic-A kinase, 2 mM Kemptide, 50 mM Hepes, pH 7.4, 1 mM dithiothreitol, 200 μM ATP, 5 mM MgCl2. […]
In order to assess the effectiveness of adenosine 5'-(γ-4-aminophenyl)triphosphate as an affinity ligand for protein kinases, the inhibition constants (Ki) of the derivative were determined for four different protein kinases, namely, p42^mapk, cyclic-A kinase, MAPKK and p60^c-arc (Table 1). […] This also facilitated comparisons for the relative binding constants determined with other ATP analogs (Flockhart et al. (1984) Eur. J. Biochem., 140:289-295; Hoppe et al. (1972) Eur. J. Biochem., 80:369-372; Taylor et al. (1990) Peptides and Protein Phosphorylation (Kemp et al.) pp 2-32, CRC Press).

B1: p42^mapk (Mus musculus) (protein)
chain: MAAAAAAGPEMVRGQVFDVGPRYTNLSYIGEGAYGMVCSAYDNLNKVRVAIKKISPFEHQTYCQRTLREIKILLRFRHENIIGINDIIRAPTIEQMKDVYIVQDLMETDLYKLLKTQHLSNDHICYFLYQILRGLKYIHSANVLHRDLKPSNLLLNTTCDLKICDFGLARVADPDHDHTGFLTEYVATRWYRAPEIMLNSKGYTKSIDIWSVGCILAEMLSNRPIFPGKHYLDQLNHILGILGSPSQEDLNCIINLKARNYLLSLPHKNKVPWNRLFPNADSKALDLLDKMLTFNPHKRIEVEQALAHPYLEQYYDPSDEPIAEAPFKFDMELDDLPKEKLKELIFEETARFQPGYRS
notes: made in house
Broadly, the Km is the substrate concentration at which the rate is half of its maximum. As to B1, the Km came to 7.5 ± 0.71 µM.

Values taken from patent US5536822A, “γ-phosphate linked adenosine 5' triphosphate sepharose” (University of Virginia Alumni Patents Foundation, priority 1994, dated 1996).
